The values that follow come from patent US20180030119A1.

Holding throughout (test): cell-based or functional assay
Test [1] deals with 26 RSV/B isolates (F protein on virus).
Test [2] has as its target 42 RSV/A isolates (F protein on virus).
Substrate in test [3]: F protein of palivizumab-resistant clinical RSV isolate #20, on virus (RSV clinical isolate #20), P11209

B1: AR201 (antibody, V domains shown)
VH: LVQLRESGPGLVKPSQTLSLTCSVSGASINLYDYFWGWIRQAPGRGPEWIGYISGSTYYNPSLKRRATISVDTSKSQFFLELTSVTAADTAVYYCARDVGWGPQYYYGLDVWGQGTTVTVSS
VL: DLVLTQSPGTLSLSPGERATLSCRASHSVQSTSLAWYQQKRGQAPRLLIYGGSSRVTGIPDRFSGSGSGTDFTLTISRLEPEDFAVYYCQQSDRSPPITFGQGTRLEMK
In test [1], B1 gave a Log10 PFU/0.2 mL after 20 ug/ml antibody, plaque reduction assay on HEp-2 cells, mean (Log10 PFU/0.2 mL) of -0.52 and a Log10 PFU/0.2 mL after 20 ug/ml antibody, plaque reduction assay on HEp-2 cells, median (Log10 PFU/0.2 mL) of -0.6. In test [2], this molecule yielded a Log10 PFU/0.2 mL after 20 ug/ml antibody, plaque reduction assay on HEp-2 cells, mean (Log10 PFU/0.2 mL) of -0.42 and a Log10 PFU/0.2 mL after 20 ug/ml antibody, plaque reduction assay on HEp-2 cells, median (Log10 PFU/0.2 mL) of -0.6. Besides, the IC50 of neutralisation, infectivity assay on Hep2 cells in test [3] was found to be 1710 nM.
